# According to PMC6071530, “The S100A4 Protein Signals through the ErbB4 Receptor to Promote Neuronal Survival” (Theranostics, 2018):
# No end group written: not given here.
# T1: human extracellular ErbB4/Fc chimera (human, UniProt Q15303 26-651)
# T1 construct: ErbB4, human, extracellular part; also called Fc-conjugated ErbB4; source: bought: R&D Systems (carrier free)
# T1 sequence (looked up): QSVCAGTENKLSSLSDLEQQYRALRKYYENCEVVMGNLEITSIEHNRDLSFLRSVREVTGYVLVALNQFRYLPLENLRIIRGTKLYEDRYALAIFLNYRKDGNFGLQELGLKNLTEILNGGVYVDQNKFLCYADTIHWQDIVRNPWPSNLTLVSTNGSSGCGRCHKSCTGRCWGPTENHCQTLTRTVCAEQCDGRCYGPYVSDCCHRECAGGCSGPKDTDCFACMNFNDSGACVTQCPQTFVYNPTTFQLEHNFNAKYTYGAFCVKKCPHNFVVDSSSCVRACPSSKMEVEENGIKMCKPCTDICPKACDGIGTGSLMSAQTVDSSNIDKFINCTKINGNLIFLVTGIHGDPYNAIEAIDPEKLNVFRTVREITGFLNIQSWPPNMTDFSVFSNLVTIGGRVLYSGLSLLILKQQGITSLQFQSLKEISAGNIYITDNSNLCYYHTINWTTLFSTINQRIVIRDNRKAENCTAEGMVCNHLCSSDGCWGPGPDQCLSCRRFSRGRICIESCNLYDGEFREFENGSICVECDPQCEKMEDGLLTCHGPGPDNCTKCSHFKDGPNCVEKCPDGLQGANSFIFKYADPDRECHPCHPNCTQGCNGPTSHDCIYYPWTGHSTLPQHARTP
# B1: amphiregulin (ligand, UniProt P15514 101-187, looked up)
# chain: SVRVEQVVKPPQNKTESENTSDKPKRKKKGGKNGKNRRNRKKKNPCNAEFQNFCIHGECKYIEHLEAVTCKCQQEYFGERCGEKSMK
# notes: amphiregulin (AR), soluble, ligand of EGFR; also called AR; source: bought: R&D Systems (carrier free)
# B2: Recombinant human S100A4 (natural protein)
# chain: not shown
# notes: S100A4 protein, human, recombinant
# B3: H3 peptide (S100A4-derived), tetramer on a lysine backbone (peptide)
# peptide: KELLTRELPSFLGKRT
# modifications: also: tetramer: four monomers coupled to a lysine backbone
# notes: motif of S100A4 with high homology within the S100 family; Dendrimeric tetramer: four copies of the peptide on a lysine backbone; source: synthetic peptide (Schafer-N, Denmark)
# B4: H6 peptide (S100A4-derived), tetramer on a lysine backbone (peptide)
# peptide: NEFFEGFPDKQPRKK
# modifications: also: tetramer: four monomers coupled to a lysine backbone
# notes: low-homology ('unique') motif in the C-terminal of S100A4; Dendrimeric tetramer: four copies of the peptide on a lysine backbone; source: synthetic peptide (Schafer-N, Denmark)
# B5: Sulfo-SBED-S100A4 (natural protein)
# chain: not shown
# modifications: derivatized with sulfo-SBED (biotin label-transfer cross-linker); sites not stated
# notes: S100A4 protein, human, recombinant; The same protein as m1, carrying the sulfo-SBED label for the label transfer cross-linking; also called sulfo-SBED-conjugated S100A4
# Columns and labels:
# Settings in all cases: both partners purified
# Recombinant human S100A4 = molecular target: B2; experiment: SPR; BIAcore 2000; 2000 RU of recombinant human S100A4 immobilized covalently on a CM4 chip; soluble AR or NRG as analyte
# Sequence of Recombinant human S100A4 (P26447 whole entry): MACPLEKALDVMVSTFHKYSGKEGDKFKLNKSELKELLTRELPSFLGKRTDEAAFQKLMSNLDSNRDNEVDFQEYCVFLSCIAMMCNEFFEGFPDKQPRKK
# [1] = molecular target: T2, human extracellular ErbB1/Fc chimera (human, UniProt P00533 25-645); experiment: SPR; BIAcore 2000; 2000 RU of ErbB/Fc chimera immobilized covalently on a CM4 chip; S100A4 or peptides as analyte; apparent affinities calculated from binding kinetics
# T2 construct: ErbB1 (EGFR), human, extracellular part; also called EGFR; EGFR-Fc; source: bought: R&D Systems (carrier free)
# [2] = molecular target: T3, human extracellular ErbB3/Fc chimera (human, UniProt P21860 20-643); experiment: as above
# T3 construct: ErbB3, human, extracellular part; also called Fc-conjugated ErbB3; source: bought: R&D Systems (carrier free)
# T3 sequence (P21860 20-643, change not shown): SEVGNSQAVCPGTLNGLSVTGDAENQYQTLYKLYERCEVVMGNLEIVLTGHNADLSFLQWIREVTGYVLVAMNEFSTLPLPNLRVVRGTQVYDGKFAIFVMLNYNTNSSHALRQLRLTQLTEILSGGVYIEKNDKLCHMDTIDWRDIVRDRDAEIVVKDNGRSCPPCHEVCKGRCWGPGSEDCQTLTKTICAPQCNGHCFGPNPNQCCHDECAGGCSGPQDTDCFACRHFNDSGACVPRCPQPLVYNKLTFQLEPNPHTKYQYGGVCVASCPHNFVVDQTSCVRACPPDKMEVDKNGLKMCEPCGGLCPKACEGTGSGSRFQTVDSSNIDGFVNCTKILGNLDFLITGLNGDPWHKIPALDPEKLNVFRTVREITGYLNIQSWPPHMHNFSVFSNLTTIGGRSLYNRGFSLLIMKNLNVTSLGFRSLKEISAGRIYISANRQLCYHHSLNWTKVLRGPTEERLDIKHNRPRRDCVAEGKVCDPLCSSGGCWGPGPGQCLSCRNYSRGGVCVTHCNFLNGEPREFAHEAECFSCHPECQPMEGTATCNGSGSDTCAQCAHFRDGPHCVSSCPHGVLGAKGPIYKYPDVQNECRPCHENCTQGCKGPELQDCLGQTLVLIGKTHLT
# [3] = molecular target: T1, human extracellular ErbB4/Fc chimera; experiment: as above
# [4] = molecular target: T2, human extracellular ErbB1/Fc chimera; experiment: cross-linking; label transfer in solution: 100 nM Sulfo-SBED-conjugated protein with 50 nM Fc fusion or mouse IgG, 30 min in the dark at RT in TBS-Ca2+, UV 302 nm 5 min, precipitated with Protein A Dynabeads, reduced, biotin detected with streptavidin-HRP
# [5] = molecular target: T3, human extracellular ErbB3/Fc chimera; experiment: as above
# [6] = molecular target: T1, human extracellular ErbB4/Fc chimera; experiment: as above
Binder,Kd (Recombinant human S100A4),Kd [1],Kd [2],Kd [3],binding result [4],binding result [5],binding result [6]
B1,71.3 ± 12.3 nM,,,,,,
B2,,21.4 ± 5.5 nM,58 ± 30 nM,66 ± 26.9 nM,,,
B3,,107 ± 23.1 nM,203 ± 46.7 nM,199 ± 53.1 nM,,,
B4,,802 ± 114 nM,62.3 ± 18.8 nM,217 ± 19.9 nM,,,
B5,,,,,binds,binds,binds
